Data from the DeepSol protein solubility set.

assay: soluble on expression in E. coli; label from the status in PepcDB or PDB records

Row | Sequence | soluble on expression in E. coli
1 | MSLAKGGKRMRRTLAGIAAVLGLALGQQQVTLFWSGAITGPTSDAGAPYGAAVEDYCKWANERKLVPGVVFNCVVRDDQYNNANTQRFFEEAVDRFKIPVFLSYATGANLQLKPLIQELRIPTIPASMHIELIDPPNNDYIFLPTTSYSEQVVALLEYIAREKKGAKVALVVHPSPFGRAPVEDARKAARELGLQIVDVQEVGSGNLDNTALLKRFEQAGVEYVVHQNVAGPVANILKDAKRLGLKMRHLGAHYTGGPDLIALAGDAAEGFLWATSFYMAHEDTPGIRLQKEIGRKYGRPENFIESVNYTNGMLVASIAVEAIRRAQERFKRITNETVYQAIVGMNGPNAFKPGFAVSTKQGVEIDFTKSEHTGAEGLRILEAKGGRFVPVTEPFTSALFRKVHYGEGHHHHHH | soluble
2 | MESKAENRKKILQMLKNFSDYEKRRQNKDVLKQLTASSKWKSAKKIALYMSMPIEFNLTELFDQSDDKEILIPKCLPERQMIFAKYDKENLVRSKFGLLEPKSEIAVEPDFILVPGLIWNDEGYRIGFGGGYYDRYLANFEGSTASVLYDFQKMDFEAESHDIAVQELFIGRKNNEFLEHHHHHH | soluble
3 | MEYRMFDIGVNLTSSQFAKDRDDVVACAFDAGVNGLLITGTNLRESQQAQKLARQYSSCWSTAGVHPHDSSQWQAATEEAIIELAAQPEVVAIGECGLDFNRNFSTPEEQERAFVAQLRIAADLNMPVFMHCRDAHERFMTLLEPWLDKLPGAVLHCFTGTREEMQACVAHGIYIGITGWVCDEPTRTGAAGTFAVDSGGKITDRNLEHHHHHH | not soluble
4 | MGSDKIHHHHHHMITVSNVSVQFGKRVLFNDVNLKFTSGNCYGIIGANGAGKSTFLRTIYGDLDPTTGTIALGPGERLSVLSQDHFKWDAYTVMDTVMMGHTVLWDIMKQREVLYAKEDFTDEDGLKVSELEEKFAELDGWNAESDAAMLLSGLGIKEDKHYTLMGELSGKEKVRVMLAQALYGNPDNLLLDEPTNDLDMETVTWLEEYLSNFEHTVLVVSHDRHFLDSVCTHTVDIDYGKINMFAGNYSFWYESSQLALRQQQNQKAKAEEKKKELEEFIRRFSANVAKSKQTTSRKKMLEKLNVEEIKPSSRKYPGIIFTPEREPGNQILEVSGLSKKTEEGVVLFSDVNFNIEKGDKVVFLSRNPRAMTAFFEIINGNMKPDAGQFNWGVTITTAYLPLDNTDFFNTDLNLVDWLSQFGEGNEVYMKGFLGRMLFSGEEVLKKVSVLSGGEKMRCMIARMQLRNANCLILDTPTNHLDLESIQAFNNNLKTYKGNILFSSHDHEFIQTVANRIIELTPNGIIDKMMEYDEYITSDHIKELRAKMYGDK | not soluble
5 | NSSDYRALFLNDVPMMDARAPVEFSKGAFPGVINLPLMNDIERQKVGTCYKQHGQDAAIQLGHQLVCGQVKDERVEAWVEFARANPNGYLYCFRGGLRSQTVQRWLKDAGVDYPRILGGYKAMRTFLLDTLHEAVTE | not soluble
6 | GIRSLDGQEDEFDANEQEEIEAKRECALRGRVSVAITPAQSREHGQGDQHGGDRSTHTDDPQAGPWHSAAPAQLSDSIRTCIDAIVDRYVTRRDADPVAKRHALAAALVELRAVGVSHPAVAPLTATIWRLMREHLRAYDKATAAENLLALRTRLLELMPSELEPVPALRNFHLLLPLILLNAEKPRRRVDRTHAITRLNTLLIEQPQQAAQEVRP | not soluble
7 | MIFVLDVGNTNAVLGVFEEGELRQHWRMETDRHKTEDEYGMLVKQLLEHEGLSFEDVKGIIVSSVVPPIMFALERMCEKYFKIKPLVVGPGIKTGLNIKYENPREVGADRIVNAVAGIHLYGSPLIIVDFGTATTYCYINEEKHYMGGVITPGIMISAEALYSRAAKLPRIEITKPSSVVGKNTVSAMQSGILYGYVGQVEGIVKRMKEEARQEPKVIATGGLAKLISEESNVIDIVDPFLTLKGLYMLYERNANLQHEKGE | not soluble
8 | MFIVLNAPVRGRYCAPMTQFASPVLHSLLDTDAYKLHMQQAVFHHYYDVHVAAEFRCRGDDLLGIYADAIREQIQAMQHLRLQDDEYQWLSALPFFKADYLNWLREFRFNPEQVTVSNDNGKLDIRLSGPWREVILWEVPLLAVISEMVHRYRSPQADVAQALDTLESKLVDFSALTAGLDMSRFHLMDFGTRRRFSREVQETIVKRLQQESWFVGTSNYDLARRLSLTPMGTQAHEWFQAHQQISPDLANSQRAALAAWLEEYPDQLGIALTDCITMDAFLRDFGVEFASRYQGLRHDSGDPVEWGEKAIAHYEKLGIDPQSKTLVFSDNLDLRKAVELYRHFSSRVQLSFGIGTRLTCDIPQVKPLNIVIKLVECNGKPVAKLSDSPGKTICHDKAFVRALRKAFDLPHIKKASMAGDPLEHHHHHH | not soluble
9 | MGSDKIHHHHHHMSVPTTMFRLTGRDYPPAKLSHASLIIIDAQKEYLSGPLKLSGMDEAVANIARLLDAARKSGRPIIHVRHLGTVGGRFDPQGPAGQFIPGLEPLEGEIVIEKRMPNAFKNTKLHETLQELGHLDLIVCGFMSHSSVSTTVRRAKDYGYRCTLVEDASATRDLAFKDGVIPAAQIHQCEMAVMADNFACVAPTASLI | not soluble
10 | MGPVPEFSVIIPARNEAAYLPGTLRALERQTLAPAEVIVVDNASRDQTAQIARSWGAQVLSCPEGGVARARQLGLDTARSSWVATTDADSLPAPGWLAAYAQAALLAGGYPEVEAYEDVILGQNLARLGEIGYVPRALVETSARRLDRGVGPFLIQHLRNLTGHTRGLEHHHHHH | not soluble
11 | MTWADEVLAGHPFVVAHRGASAARPEHTLAAYDLALKEGADGVECDVRLTRDGHLVCVHDRRLDRTSTGAGLVSTMTLAQLRELEYGAWHDSWRPDGSHGDTSLLTLDALVSLVLDWHRPVKIFVETKHPVRYGSLVENKLLALLHRFGIAAPASADRSRAVVMSFSAAAVWRIRRAAPLLPTVLLGKTPRYLTSSAATAVGATAVGPSLPALKEYPQLVDRSAAQGRAVYCWNVDEYEDIDFCREVGVAWIGTHHPGRTKAWLEDGRANGTTR | not soluble
12 | QKFIARNRAPRVQIEYDVELYGAEKKVQLPFVMGVMADLAGKPAEPQAAVADRKFLEIDVDNFDARLKAMKPRVAFNVPNVLTGEGNLSLDITFESMDDFSPAAVARKVDSLNKLLEARTQLANLLTYMDGKTGAEEMIMKAIKDPALLQALASAPKPK | not soluble
13 | MPKGSGKVIAQNKKAFHDYFIEETYEAGLVLQGTEIKSIRAGRVNLKDAFARVHNGEVWVHNMHISTYEQGNRFNHDPLRTRKLLLHKKEIEKLAGASKETGYALVPVRIYLKNGFAKMALGLAKGKKQYDKRHDLKEKEAKREIARAFRDRQKM | not soluble
14 | MDQENERNISRLWRAFRTVKEMVKDRGYFITQEEVELPLEDFKAKYCDSMGRPQRKMMSFQANPTEESISKFPDMGSLWVEFCDEPSVGVKTMKTFVIHIQEKNFQTGIFVYQNNITPSAMKLVPSIPPATIETFNEAALVVNITHHELVPKHIRLSSDEKRELLKRYRLKESQLPRIQRADPVALYLGLKRGEVVKIIRKSETSGRYASYRICM | soluble
15 | MGSDKIHHHHHHMLLKLLHYLRCPQCRSQLSLSEATVGDWVEQGQLLCTQCRRTYAITKGIAYLYVENEEWKQLAAEAAGWVQMAKDAGCYDQTGIDIDFRLPYVPIPPWIDIARAFDIVLNIVRPRPGAMVVDIGAGRGWAAKQFAIRGCHAVAVEINDDDQIGLGRSLALMQHANVQYDLLIASSQRLPLADESFDIVFASAALHHSSCLATLLSEAARVLRRGGKLIAIHEPCIADHVTPEQDAPNIAQETAYNIHESRPKLDDYRHALRHAGLQELALFNHELYGTSIEDMQQWAANHWLSLLTADQIAMLRRKRTPTLWRTIRILRSRLQQLPDTTLVPPQDWMDQYYRHVGGSLTIIAQKP | not soluble
16 | MKRKPAVAGYFYPERKDELYSLLSSFAIPEQHVSGTIIGAVVPHAGIIYSGRTAMYSYRAIEKSAVRDFVIIGPNHRPLTPYASLYPEGEWSTPLGDALINDRMAEALYRDSNYIVKDEESHLMEHSVEVQIPFLQYLFGDGFRFVPVILGDQEIDVARDIGEAIMKIEDPFIFIASSDFTHYEDAKRVEKKDMDLISAILTLDLDKFYSVLEKENVTACGYGAIAALMYYTKKRGGRMIFLNHSNSGDVTGDYSEVVGYASLVSVIPLEHHHHHH | soluble
17 | MGSDKIHHHHHHMKTQQERQPGKIATKFNQEKTREGKKLKIAVVAQDSQYPSTIQRFLAEADKSYPLISLIGGVQQVAAVAEQEQPDLLMLEGQYFSSMELETLNRVTSRFPDVGVVMLCPAQPPELLIEVMRAGVREVLPTPLTRHGVIDAVERFQQRIALSRMPMHECKVLAFIPCKGGSGATFLATNIAYALAAQENKRVALFDFNLQFGDASLFVQDGPPATSIADVARQIQRLDGSFLNSSMIQVLPNFGMLAAPESPEKAAEIRSEHINPLFQVAMKHYDFVILDVGRELDAISIQALDRADLIFPVLQQTLPSIRDARRMSAAFAALNYPDEKIRLIVNRYKKNADITLDDIESTLNLKIFKVVPNDYAVVTGSVNQGIPATKLAPRSPVAKSLQEIAHELCRGAGQGNLLRKLFAF | not soluble
18 | MLIVRPSGRAAEDVETCLNAGWRAEVLSPVEIEADAAGLELLSEQYARADAVFWVSPTAVETAVPYLNLSDGIKAQIAVGQGSRRALERCLVRTVIAPDDGNDSEAVLRLPVWNSLPEGARVLFVRGHGGRDFLMNALQEKGFRTEVAEVYFRRHKPLNFQNFQTENIAAAYITSTELVRLLFGQLPPQFSRFFKSLLYFTHHPRIAEALKREGVCSVETVPTLEAALSHSSISVSDGMVFPGTSN | not soluble
19 | EQALSDQLRFVEALTDCMPPPLYVRDVNGRMLSCNRSYLQSVGLSSEEVMNRTVLELPMENFETAPEFHRSYLMAMREGRTIEAVYPVALGGRERWIDHWIQPFRDSSGTIRGVICGWLDITEHRQLIDELEEAKNLADEASRAKTTFLATMSHEIRTPMNAVIGILELALKRAETGRVDRSSIEIAYASAKSLLELIGDILDIARIESGRLSLSPKRANLRELVESVARVFEGLARQKRLSLVLEIDSSINGDVLLDAMRFKQILSNLVSNAIKFTDEGSIRIRIDGRQVEPSLLQVNLCVEDTGIGISLGDQQQLFRPFAQVNRNLQNTEGTGLGLVISRSLCEMMGGRLVMSSELGQGTRIDVELRLQVLEPIVENVRAIPLGSRQARRLQVLVVDDHAVNRQILHQQLSFLGHDVEEAENGLSALNLWHGQPFDMVITDCHMPLMSGSDLARSIRQEERENGEEPVVIIGLTADAQPEEIERCIQAGMNECLIKPIGLDVLEERLLALGFAADELPVTIDAEPVAIPTAPRLYDLDSLHALTGGEPTMLRRLLDELLTSNRKDLETLEGLVQRQETGELAELAHRIKGAARVVRGEQLVESCRRLEDACLSPNASFAWVEECAVGVKLAILALDESLVEEC | not soluble
20 | MTTSQMIADFTTLAIQAGGWMELDRLYLQNRLLSMIGEQELGEVDIRPVATPAADLAEQLCQVASANQLVKTEQQKEQFMVQLMDLLTPPPSVVNAFFAQHYAKEPQEATEYFYQLCQKNGTVIEQEEPVVFSTVYGDFLANKVHSEASKATLSAQSYPRCEWCMATEGYQGSQQFPATTNHRVIRMNLDGESWGFSFVKQAQYQQQGVIAFEKHQSAKRSIKTFQQLLKIVEVFPHYFAGIDADFEQNEHVYYQTGLQQFPLAEASISEYVELANYPLINAGMVNWPVETFRLEGPNASEVAQAANDIFEQWQMLKLPTDEIQIVARRKELLYVMDLIFSRPQAKPSLTLAEVQGLTTWNNQKTQALETVASAYQQRLKEASAFAETSEGKAAFLAMVAPVTH | not soluble
